The values that follow come from PMC4980550, “Structural Basis for Plexin Activation and Regulation” (Neuron, 2016).

Values joined by “and” are separate entries in the source; they are usually repeats but may differ in a detail not shown here. Identical values can stand only once.

For data set [1], the target named is PlxnA1_(1-10), full extracellular segment of mouse PlxnA1 (domains 1-10) (mouse) (UniProt P70206). Briefly: AUC; sedimentation velocity, 40,000 rpm, absorbance at 280 nm, c(s) analysis; protein at 28.1 μM (4 mg/ml).
Data set [2] deals with PlxnA2 extracellular-transmembrane segment fused to mTFP1 (donor) or mVenus (acceptor) (mouse). Briefly: FRET or BRET; FRET-FLIM in live COS-7 cells co-expressing mTFP1- and mVenus-fused PlxnA2; before Sema6A stimulation.
Data set [3] concerns the molecule itself. Description: crystal structure; crystals of full extracellular segments; intermolecular plexin-plexin interface in the crystal; 4 to 10 Å.
Data set [4] has as its target T1, PlxnA2_(1-2), PlxnA2 sema-PSI1 domains (mouse, UniProt P70207 31-561).
T1 construct: Plexin-A2, mouse, sema and PSI1 domains (domains 1-2)
T1 sequence: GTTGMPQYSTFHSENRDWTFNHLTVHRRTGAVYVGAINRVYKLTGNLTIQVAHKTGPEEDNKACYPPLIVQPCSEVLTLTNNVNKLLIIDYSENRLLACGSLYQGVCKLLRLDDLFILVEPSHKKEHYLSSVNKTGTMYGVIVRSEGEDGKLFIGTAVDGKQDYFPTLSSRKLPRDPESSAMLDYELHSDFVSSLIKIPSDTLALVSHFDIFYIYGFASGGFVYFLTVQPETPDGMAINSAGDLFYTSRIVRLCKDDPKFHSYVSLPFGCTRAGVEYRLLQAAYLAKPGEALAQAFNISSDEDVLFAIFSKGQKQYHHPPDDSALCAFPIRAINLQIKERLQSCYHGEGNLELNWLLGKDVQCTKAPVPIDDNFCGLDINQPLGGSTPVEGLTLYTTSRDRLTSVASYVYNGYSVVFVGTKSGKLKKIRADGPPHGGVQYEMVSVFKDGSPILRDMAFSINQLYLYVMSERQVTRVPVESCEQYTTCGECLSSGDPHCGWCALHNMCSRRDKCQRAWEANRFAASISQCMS
Briefly: SPR; equilibrium experiments, Biacore T200, 25°C, 10 mM HEPES pH 7.5, 150 mM NaCl, 0.005% Tween 20; biotinylated PlxnA2_(4-5) (wild type or mutant) on streptavidin chip, PlxnA2_(1-2) as analyte; 1:1 Langmuir model. As to conditions: both partners purified. Background: In SPR one partner is held on a chip, and binding of the other changes the refractive index at the surface.

For the molecule “PlxnA1_(1-10), full extracellular segment of mouse PlxnA1 (domains 1-10) (from UniProt P70206 28-1242) (domain or fragment)”, the stoichiometry N – broadly, a count of units in the complex or per binding partner – in data set [1] was 2 and 3 and 4. “PlxnA2 extracellular-transmembrane segment fused to mTFP1 (donor) or mVenus (acceptor) (receptor)” registered an average fraction of interacting donor (fD) in data set [2] of 0.11.

B1: PlxnA2_(1-10), full extracellular segment of mouse PlxnA2 (domain or fragment, UniProt P70207 35-1237, looked up)
chain: MPQYSTFHSENRDWTFNHLTVHRRTGAVYVGAINRVYKLTGNLTIQVAHKTGPEEDNKACYPPLIVQPCSEVLTLTNNVNKLLIIDYSENRLLACGSLYQGVCKLLRLDDLFILVEPSHKKEHYLSSVNKTGTMYGVIVRSEGEDGKLFIGTAVDGKQDYFPTLSSRKLPRDPESSAMLDYELHSDFVSSLIKIPSDTLALVSHFDIFYIYGFASGGFVYFLTVQPETPDGMAINSAGDLFYTSRIVRLCKDDPKFHSYVSLPFGCTRAGVEYRLLQAAYLAKPGEALAQAFNISSDEDVLFAIFSKGQKQYHHPPDDSALCAFPIRAINLQIKERLQSCYHGEGNLELNWLLGKDVQCTKAPVPIDDNFCGLDINQPLGGSTPVEGLTLYTTSRDRLTSVASYVYNGYSVVFVGTKSGKLKKIRADGPPHGGVQYEMVSVFKDGSPILRDMAFSINQLYLYVMSERQVTRVPVESCEQYTTCGECLSSGDPHCGWCALHNMCSRRDKCQRAWEANRFAASISQCMSLEVHPNSISVSDHSRLLSLVVNDAPNLSEGIACAFGNLTEVEGQVSGSQVICISPGPKDVPVIPLDQDWFGLELQLRSKETGKIFVSTEFKFYNCSAHQLCLSCVNSAFRCHWCKYRNLCTHDPTTCSFQEGRINVSEDCPQLVPTEEILIPVGEVKPITLKARNLPQPQSGQRGYECVLSIQGAVHRVPALRFNSSSVQCQNSSYQYDGMDISNLAVDFAVVWNGNFIIDNPQDLKVHLYKCAAQRESCGLCLKADHKFECGWCSGERRCTLHQHCPSTSSPWLDWSSHNVKCSNPQITEILTVSGPPEGGTRVTIHGVNLGLDFSEIAHHVQVAGVPCTPIPGEYIIAEQIVCEMGHAVIGTTSGPVRLCIGECKPEFMTKSHQQYTFVNPSVLSLSPIRGPESGGTMVTITGHYLGAGSSVAVYLGNQTCEFYGRSMNEIVCVSPPSSNGLGPVPVSVSVDRARVDSSLQFEYIDDPRVQRIEPEWSITSGHTPLTITGFNLDVIQEPRVRVKFNGKESVNVCTVVNTTTLTCLAPSLTSDYRPGLDTVERPDEFGFLFNNVQSLLIYNDTKFIYYPNPTFELLSPTGILDQKPGSPIILKGKNLCPPASGGAKLNYTVMIGETPCTVTVSETQLLCEPPNLTGQHKVMVHVGGMVFSPGSVSVISDSLLTLP
notes: Plexin-A2, mouse, full extracellular segment (domains 1-10); also called PlxnA2 full ectodomain
For B1, in data set [3], the binding result is recorded as “binds”.

B2: PlxnA2_(4-5), PlxnA2 PSI2-IPT2 domains (domain or fragment, mouse)
chain: NCSAHQLCLSCVNSAFRCHWCKYRNLCTHDPTTCSFQEGRINVSEDCPQLVPTEEILIPVGEVKPITLKARNLPQPQSGQRGYECVLSIQGAVHRVPALRFNSSSVQCQNSSYQYDGMDISNLAVDFAVVWNGNFIIDNPQDLKVHLYK
modifications: enzymatically biotinylated with BirA via an engineered C-terminal tag
notes: Plexin-A2, mouse, PSI2 and IPT2 domains (domains 4-5); The crystallised PlxnA2_(4-5) (PDB 5L74) was made in HEK293S cells; also called wild-type PlxnA2_(4-5); not shown: biotinylation tag (BirA), C-terminal, kept
For the molecule B2, the equilibrium dissociation constant (Kd) (in general, the concentration at which binding is half-saturated) in data set [4] was 20.9 ± 0.38 µM.

B3: PlxnA4_(1-10), full extracellular segment of mouse PlxnA4 (domain or fragment, UniProt Q80UG2 24-1236, looked up)
chain: TLLPRQPPQLSQKPSFVTFRGEPAEGFNHLVVDERTGHIYLGAVNRIYKLSSDLKVLVTHQTGPDEDNPKCYPPRIVQTCNEPLASTNNVNKMLLIDYKENRLIACGSLYQGICKLLRLEDLFKLGEPFHKKEHYLSGVNESGSVFGVIVSYSNFDDKLFIATAVDGKPEYFPTISSRKLTKNSEADGMFAYVFHDEFVASMIKIPSDTFTVIPDFDIYYVYGFSSGNFVYFLTLQPEMVSPPGSTTKEQVYTSKLVRLCKEDTAFNSYVEVPIGCERNGVEYRLLQAAYLSKAGAVLGRTLGVRPDDDLLFTVFSKGQKRKMKSLDESALCIFILKQINDRIKDRLQSCYRGEGTLDLAWLKVKDIPCSSALLTIDDNFCGLDMNAPLGVSEMVRGIPVFTEDRDRMTSVIAYVYKNHSLAFVGTKSGKLKKIRVDGPKGNALQYETVQVVDSGPVLRDMAFSKDHEQLYIMSERQLTRVPVESCGQYRSCGECLGSGDPHCGWCVLHNTCTRKERCERSREPRRFASEMKQCVRLTVHPNNISVSQYNVLLVLETYNVPELSAGVNCTFEDLSEMDGLVIGNQIQCYSPAAKEVPRIITENGDHHVVQLQLKSKETGMTFASTSFVFYNCSVHNSCLSCVESPYRCHWCKYRHVCTHDPNTCSFQEGRVKLPEDCPQLLRVDKILVPVEVIKPITLKAKNLPQPQSGQRGYECILNIQGIEQRVPALRFNSSSVQCQNTSYSYEGMEINNLPVELTVVWNGHFNIDNPAQNKVYLYKCGAMRESCGLCLKADPDFECGWCQSPGQCTLRQHCPAHESRWLELSGANSKCTNPRITEIIPVTGPREGGTKVTIRGENLGLEFRDIASHVKVAGVECSPLVDGYIPAEQIVCEMGEAKPSQHAGFVEICVAVCRPEFMARSSQLYYFMTLTLADLKPNRGPMSGGTQVTITGTNLNAGSNVVVMFGSQPCLFHRRSPSYIICNTTSSEEVLDMKVTVQVDRARIRQDLVFQYVEDPTIVRIEPEWSIVSGNTPIAVWGTHLDLIQNPQIRAKHGGKEHINICEVLNATEMTCQAPALALGPDHQSDLTERPEEFGFILDNVQSLLILNKTNFTYYPNPVFEAFSPSGILELKPGTPIILKGKNLIPPVAGGNVKLNYTVLVGEKPCTVTVSDVQLLCESPNLIGRHKVMARVGGMEYSPGMVYIAPDSPLSLP
notes: Plexin-A4, mouse, full extracellular segment (domains 1-10); also called PlxnA4 full ectodomain
In the case of B3, in data set [3], the binding result is on record as “binds”.
